B1: 3H10-his recombinant protein (designed binder)
chain: GSHMDLGKKLLEAAWAGRDDEVRILMANGADVNAGDASGDTPLHLAAFSGHLEIVEVLLKHGADVNAEDLLGMTPLHLAAPFGHLEIVEVLLKHGADVNAAARNNGKTPLHLAAFVGHLEIVEVLLKNGADVNAQDKFGKTAFDISIDNGNEDLAEILQKLNG
notes: Expressed in E. coli Rosetta from pet28b, purified on a nickel column; also called 3H10-his fusion protein; 3H10 recombinant protein; not shown: His tag from vector pet28b
B2: TSLPR-his (Novoprotein Scientific Inc., Cat. No. CW75) (receptor, UniProt Q9HC73 23-231, looked up)
chain: QGGAAEGVQIQIIYFNLETVQVTWNASKYSRTNLTFHYRFNGDEAYDQCTNYLLQEGHTSGCLLDAEQRDDILYFSIRNGTHPVFTASRWMVYYLKPSSPKHVRFSWHQDAVTVTCSDLSYGDLLYEVQYRSPFDTEWQSKQENTCNVTIEGLDAEKCYSFWVRVKAMEDVYGPDTYPSDWSEVTCWQRGEIRDACAETPTPPKPKLSK
notes: Bought protein; not shown: His tag
B3: hIL-7Rα-mFc (ACROBiosystems, Cat. No. ILA-H5258) (Fc fusion, human, UniProt P16871 21-239, looked up)
chain: ESGYAQNGDLEDAELDDYSFSCYSQLEVNGSQHSLTCAFEDPDVNITNLEFEICGALVEVKCLNFRKLQEIYFIETKKFLLIGKSNICVKVGEKSLTCKKIDLTTIVKPEAPFDLSVVYREGANDFVVTFNTSHLQKKYVKVLMHDVAYRQEKDENKWTHVNLSSTKLTLLQRKLQPAAMYEIKVRSIPDHYFKGFWSEWSPSYYFRTPEINNSSGEMD
notes: Bought protein; not shown: mouse Fc tag

Experiments:
[1] = target: T1, hTSLP-mFc recombinant protein (ACROBiosystems, Cat. No. TSP-H5255) (human, UniProt Q969D9 29-159); experiment: ELISA, hTSLP-mFc coated 50 ng/well, anti-His HRP
T1 construct: Bought protein; also called hTSLP-Fc protein; not shown: mouse Fc tag
Experimental: hTSLP-mFc recombinant protein (ACROBiosystems, Cat. No. TSP-H5255) was coated onto a plate at 50 ng/well and incubated at 4° C. overnight. […] After washing, mouse anti-His tag horseradish peroxidase-labeled antibody (1:5000) (purchased from Beijing Sino Biological, 105327-MM02T-H) was added, and the mixture was reacted at room temperature for 1 hour. After washing, TMD substrate solution was added, and the absorbance was read at 450 nm. Data processing and graphical analysis were performed using the software Graphpad Prism 6.0.

[2] = target: T2, hTSLP recombinant protein (ACROBiosystems, Cat. No. TSP-H52Ha) (human, UniProt Q969D9 29-159); experiment: competitive ELISA: blocks binding of hTSLP/hTSLPR-Fc complex to coated mouse IL-7Rα-his, anti-human Fc HRP
T2 construct: Bought protein; also called hTSLP protein; hTSLP-his; not shown: His tag
Experimental: Then, goat anti-human Fc tag horseradish peroxidase-labeled antibody (1:10000) was added, and the mixture was reacted at room temperature for 1 hour. Then, TMD substrate solution was added, and the absorbance was read at 450 nm. Data processing and graphical analysis were performed using the software Graphpad Prism 6.0.

[3] = target: T2, hTSLP recombinant protein …; experiment: competitive ELISA: blocks binding of hIL-7Rα-mFc to hTSLP/TSLPR-Fc complex, anti-mouse Fc HRP
Experimental: TSLPR-Fc fusion protein was coated onto a plate at a concentration of 0.5 μg/mL and a volume of 100 μL per well, and incubated at 4° C. overnight. […] Then, goat anti-mouse Fc tag horseradish peroxidase-labeled antibody (1:5000) was added, and the mixture was reacted at room temperature for 1 hour. Then, TMD substrate solution was added, and the absorbance was read at 450 nm. Data processing and graphical analysis were performed using the software Graphpad Prism 6.0.

[4] = target: T2, hTSLP recombinant protein …; experiment: cell-based or functional assay
hTSLP/TSLPR-Fc complex = target: T3, hTSLP/TSLPR-Fc complex (human, UniProt Q9HC73 23-231); experiment: ELISA, TSLPR-Fc coated, hTSLP added, hIL-7Rα-mFc titrated, anti-mouse Fc HRP
T3 construct: also called hTSLP/hTSLPR-Fc complex; not shown: His tag of the bought hTSLP; Fc tag of the bought protein (detected with anti-human Fc)
Experimental: TSLPR-Fc recombinant protein (purchased from ACROBiosystems, Cat. No. TSR-H525a) was coated onto a plate at 0.1 μg/well and incubated at 4° C. overnight. Subsequently, the plate was washed and added with 0.1 μg/well of hTSLP, and the mixture was reacted at room temperature for 1 hour. […] After washing, goat anti-mouse Fc tag horseradish peroxidase-labeled antibody (purchased from Abcam, ab97040) was added, and the mixture was reacted at room temperature for 1 hour. After washing, substrate solution was added, and the absorbance was read at 450 nm.

T2 sequence (Q969D9 29-159 R127A/R130A limits assumed): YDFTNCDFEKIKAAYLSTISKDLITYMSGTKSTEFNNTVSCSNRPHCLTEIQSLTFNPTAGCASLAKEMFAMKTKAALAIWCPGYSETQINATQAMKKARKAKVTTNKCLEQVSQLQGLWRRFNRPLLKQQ
T1 sequence (Q969D9 29-159 R127A/R130A limits assumed): as above

Binder | EC50 [1] [µg/mL] | IC50 [2] [nM] | IC50 [3] [nM] | inhibition of hTSLP-induced reporter gene expression in BaF3-hTSLPR-hIL-7R-STAT5-Luc cells, IC50 [4] [nM] | inhibition of the proliferation-promoting effect of hTSLP on Ba/F3-TSLPR/IL-7Rα cells (CTG), IC50 [4] [nM] | EC50 (hTSLP/TSLPR-Fc complex) [µg/mL]
B1 | 0.029 | 1.69 | 1.29 | 0.348 | 1.55 | 
B2 | 0.803 |  |  |  |  | 
B3 |  |  |  |  |  | 0.689
